The values that follow come from article PMC4436829.

In test [1] the target is S8,15,44,55D NDC80 "Bonsai"-GFP complex. Description: FRAP.
Test [2] has as its target Taxol-stabilized microtubules (polymerized cow brain tubulin) (cow) (UniProt Q2HJ86). The test can be described thus: FRAP.
Test [3] addresses S8,15,44,55D NDC80 "Bonsai"-GFP complex. The test can be described thus: TIRF-based MT-binding assay.
Test [4] has as its target Taxol-stabilized microtubules (polymerized cow brain tubulin) (cow) (UniProt Q2HJ86). The test can be described thus: TIRF-based MT-binding assay.
Test [5] deals with S15D NDC80 "Bonsai"-GFP complex. Description: TIRF-based MT-binding assay.
The target is the same in test [6]. Description: TIRF-based MT-binding assay. This is another data set of the same source.
Test [7] has as its target noD NDC80 "Bonsai"-GFP complex (wild-type Hec1 tail). Description: FRAP.
The target in test [8] is Taxol-stabilized microtubules (polymerized cow brain tubulin) (cow) (UniProt Q2HJ86). The test can be described thus: single-molecule TIRF microscopy.
Test [9] concerns the target noD NDC80 "Bonsai"-GFP complex (wild-type Hec1 tail). Description: TIRF-based MT-binding assay.

Like-named read-outs stand apart in the source and are kept apart here.

UniProt Q2HJ86, sequence (Q2HJ86 8-447, chain 1 of 2): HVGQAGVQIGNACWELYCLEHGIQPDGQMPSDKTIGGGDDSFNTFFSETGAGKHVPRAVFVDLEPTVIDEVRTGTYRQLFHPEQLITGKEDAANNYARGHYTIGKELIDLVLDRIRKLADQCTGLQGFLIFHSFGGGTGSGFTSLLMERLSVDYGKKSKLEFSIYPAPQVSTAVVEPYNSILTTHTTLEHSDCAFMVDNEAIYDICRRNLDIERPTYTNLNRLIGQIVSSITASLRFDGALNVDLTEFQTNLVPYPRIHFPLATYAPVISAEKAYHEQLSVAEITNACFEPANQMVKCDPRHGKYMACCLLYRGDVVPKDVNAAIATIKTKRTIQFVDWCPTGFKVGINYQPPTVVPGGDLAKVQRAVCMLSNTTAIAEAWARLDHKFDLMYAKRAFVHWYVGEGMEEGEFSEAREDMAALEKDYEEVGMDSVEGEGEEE
UniProt Q2HJ86, sequence (Q6B856 1-439, chain 2 of 2, further chain): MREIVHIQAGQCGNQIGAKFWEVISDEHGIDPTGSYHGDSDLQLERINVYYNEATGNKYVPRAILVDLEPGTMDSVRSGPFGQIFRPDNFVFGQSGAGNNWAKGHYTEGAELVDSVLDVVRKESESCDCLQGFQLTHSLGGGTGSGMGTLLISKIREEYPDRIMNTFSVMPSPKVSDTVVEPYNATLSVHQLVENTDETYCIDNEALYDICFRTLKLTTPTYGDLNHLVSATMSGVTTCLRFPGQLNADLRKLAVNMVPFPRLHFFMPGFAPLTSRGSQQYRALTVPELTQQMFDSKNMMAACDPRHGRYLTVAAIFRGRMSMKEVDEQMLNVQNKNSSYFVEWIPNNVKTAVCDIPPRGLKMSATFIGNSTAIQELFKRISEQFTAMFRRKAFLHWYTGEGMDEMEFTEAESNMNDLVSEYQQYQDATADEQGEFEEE

In test [1], S8,15,44,55D NDC80 "Bonsai"-GFP complex returned a cooperativity parameter (ω) of 2.4. Moreover, the FRAP recovery time in test [2] was 0.084 s. The cooperativity parameter (ω) in test [3] turned out to be 2.6. In test [4], this substance showed a Kd of 1.92 µM and a stoichiometry N (molecules per tubulin dimer) of 1.9.

Take S15D NDC80 "Bonsai"-GFP complex: the cooperativity parameter (ω) in test [5] was determined as 2. Also, in test [4], the Kd was 0.71 µM and the stoichiometry N (molecules per tubulin dimer) was 1.9. In addition, the cooperativity parameter (ω) in [6] stood at 3.

For “noD NDC80 "Bonsai"-GFP complex (wild-type Hec1 tail)”, the FRAP recovery time in test [2] amounted to 0.29 s. Also, the cooperativity parameter (ω) in test [7] was 2; in test [9], 3.33. In addition, the Kd was determined as 0.64 µM in [8] and 0.53 µM in test [4]. In addition, the residency time (τ = 1/koff) in [8] came to 417 ms. The substance also had a stoichiometry N (molecules per tubulin dimer) in test [4] of 1.9.

One may read the Kd as a measure of binding affinity in units of concentration.
